Legend:
[1] = target: T1, human dual endothelin-1/VEGF signal peptide receptor (hDEspR) (human) (UniProt B0L3A2); assay: cell-based or functional assay
T1 sequence: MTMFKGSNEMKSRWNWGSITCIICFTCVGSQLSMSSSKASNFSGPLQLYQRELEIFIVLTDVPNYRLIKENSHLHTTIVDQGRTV

rat DEspR (rat) = rat DEspR (rat) (UniProt D3ZGZ6); assay: in vivo contrast-enhanced ultrasound of carotid arteries, pre-/post-destruction difference, isotype control microbubbles in Tg25+ rats
[2] = target: T1, human dual endothelin-1/VEGF signal peptide receptor (hDEspR) (human); assay: microbubble adherence to HUVECs, isotype control at 800× MB to cell ratio
[3] = target: T2, antigenic hDEspR 9-aa peptide, NH2-terminal 9 amino acids of hDEspR (human); assay: indirect ELISA, free hDEspR 9-aa peptide coated on the plate, hybridoma supernatant at 1 ug/ml in two-fold serial dilutions (1 = 1/2 ... 12 = 1/4096), HRP anti-IgG, OD450
T2 construct: Free peptide coated directly on ELISA wells; The KLH conjugate was used only for immunisation; also called DEspR(1-9)
T2 peptide: MTMFKGSNE
Procedure: Monoclonal antibody characterization by ELISA and Western blot analysis. The M₁[…]₉ antigenic peptide was coated directly on wells of a microtiter plate. Appropriate dilutions of primary antibodies were incubated at 37° C. for 1 hr. The wells were then incubated with HRP labeled anti-IgG (SIGMA cat#A0168) at 1:9000 at 37° C. for 1 hr. The reactions were visualized by the addition of 3,3′5,5′-tetramethylbenzidine substrate (incubation at 37° C. for 10 min) and read spectrophotometrically at 450 nm. Western blot analysis was done as described using equal amounts of whole cell protein extract (40 μg) from Cos1 cell transfectants stably expressing hDEspR[17] and corresponding candidate monoclonal antibodies raised against hDEspR specific synthetic peptide. Immunoreactive hDEspR (10 kDa polypeptide) was detected by chemiluminescence using the ECL Western Detection kit (GE Healthcare).

[4] = target: T3, human dual endothelin-1/VEGF signal peptide receptor (hDEspR) (human, UniProt B0L3A2 1-85); assay: cell-based or functional assay
T3 sequence: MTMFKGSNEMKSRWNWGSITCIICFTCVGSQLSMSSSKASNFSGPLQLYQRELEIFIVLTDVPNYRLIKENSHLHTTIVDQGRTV

With “endothelin-1 (ET1) (from UniProt P05305 53-73) (ligand)” the BRCA1 S1497 phosphorylation, % change from control (antibody microarray, Cos1-hDEspR, 30 min, 10 nM) [1] was 32 % CFC, the CDK1/2 T14/Y15 phosphorylation, % change from control [1] was 53 % CFC and the CDK1/2 Y15 phosphorylation, % change from control [1] was 281 % CFC. It also gave an ERK1/2 T202 + Y204; T185 + Y187 phosphorylation, % change from control [1] of 135 % CFC, an FAK S722 phosphorylation, % change from control [1] of 55 % CFC and an FAK S732 phosphorylation, % change from control [1] of 62 % CFC. For the same molecule, the FAK panspecific (expression), % change from control [1] was 205 % CFC, the Met panspecific (expression), % change from control [1] was 384 % CFC and the PCNA panspecific (expression), % change from control [1] was -47 % CFC. The PKCa T638/T641 phosphorylation, % change from control [1] was 137 % CFC, the PKCe panspecific (expression), % change from control [1] was 103 % CFC and the Raf1 S259 phosphorylation, % change from control [1] was 12 % CFC. It also gave an SHP2 S576 phosphorylation, % change from control [1] of 14 % CFC, an STAT1 S727 phosphorylation, % change from control [1] of 86 % CFC and an STAT1 Y701 phosphorylation, % change from control [1] of 95 % CFC. The STAT3 S727 phosphorylation, % change from control [1] was 133 % CFC, the Shc1 (ShcA) Y349, Y350 phosphorylation, % change from control [1] was 9 % CFC and the Smad 1/5/9 S463 + S465/S465 + S467 phosphorylation, % change from control [1] was 18 % CFC. The Src Y418 phosphorylation, % change from control [1] was -11 % CFC and the Src Y529 phosphorylation, % change from control [1] was -20 % CFC.

For “control isotype-targeted microbubbles (MBC)”, the Contrast intensity signal Δ (rat DEspR (rat)) was 1.9 and the % of HUVECs bound [2] was 6.8%.

B1: anti-hDEspR 7C5B2 monoclonal antibody (antibody, IgG2b, V domains shown)
VH: QVQLKESGPGLVAPSQSLSITCTVSGFSLTSYDISWIRQPPGKGLEWLGVIWTGGGTNYNSAFMSRLSISKDNSKSQVFLKMNSLQTDDTAIYYCVRDRDYDGWYFDVWGAGTTVTVSS
VL: DVLMTQTPLSLPVSLGDQASISCRSSQSIVHSNGNTYLEWYLQKPGQSPKLLIYKVSNRFSGVPDRFSGSGSGTDFTLKISRVEAEDLGVYYCFQGSHVPYTFGGGTKLEIK
notes: Tested as hybridoma supernatant and as purified antibody; also called 7C5B2 antibody; 7C5B2 anti-DEspR antibody
B1 was tested, and the binding result [3] was “binds”, the “EC50, inhibition of MDA-MB-468 tumor cell invasiveness” value [4] was 3.55 nM and the “EC50 for # branching points, inhibition of serum-induced HUVEC tubulogenesis” value [4] was 3.97 nM. The “EC50 for total tube length, inhibition of serum-induced HUVEC tubulogenesis” value [4] was 4.34 nM.

— patent US20130022551A1 (TRUSTEES OF BOSTON UNIVERSITY, published 2013)
